Assays:
[1] = biological target: T1, CD82 polypeptide (human) (human); assay: IP with anti CD82 antibodies, human myotubes, mass spectrometry
T1 sequence (P27701 whole entry, looked up): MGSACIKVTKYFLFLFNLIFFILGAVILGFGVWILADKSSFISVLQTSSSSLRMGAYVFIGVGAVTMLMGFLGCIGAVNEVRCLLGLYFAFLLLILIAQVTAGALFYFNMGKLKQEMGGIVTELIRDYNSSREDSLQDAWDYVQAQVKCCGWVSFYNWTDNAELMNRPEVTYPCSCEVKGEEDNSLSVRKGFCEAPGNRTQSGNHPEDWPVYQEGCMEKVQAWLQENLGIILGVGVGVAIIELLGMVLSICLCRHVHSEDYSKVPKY

CD82 (mouse) (mouse) = CD82 (mouse) (mouse) (UniProt P40237); assay: IP with anti CD82 antibodies, mouse muscle tissue, mass spectrometry

Chain of Annexin A2 (human) (P07355 2-339 limits assumed): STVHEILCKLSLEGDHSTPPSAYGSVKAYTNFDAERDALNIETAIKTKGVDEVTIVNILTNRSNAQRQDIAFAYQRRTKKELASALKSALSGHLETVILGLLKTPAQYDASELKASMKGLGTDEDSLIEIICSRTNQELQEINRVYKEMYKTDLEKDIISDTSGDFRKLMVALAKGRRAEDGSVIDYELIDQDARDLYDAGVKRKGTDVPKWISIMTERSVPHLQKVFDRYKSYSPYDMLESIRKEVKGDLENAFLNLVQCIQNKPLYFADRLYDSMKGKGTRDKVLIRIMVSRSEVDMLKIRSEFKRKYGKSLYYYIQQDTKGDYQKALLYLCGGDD

Substance | Total [1] | Unique [1] | Total (CD82 (mouse) (mouse)) | Unique (CD82 (mouse) (mouse))
Filamin C (from UniProt Q14315) | 24 | 24 |  | 
profilin (from UniProt P07737) | 3 | 3 |  | 
Filamin B (from UniProt O75369) | 3 | 3 |  | 
Dysferlin (from UniProt O75923) | 32 | 31 |  | 
TBA1A_MOUSE (from UniProt P68369) |  |  | 3 | 3
KV2A7_MOUSE |  |  | 2 | 2

Second part, the substance after the results:

Total [1] | Unique [1] | Total (CD82 (mouse) (mouse)) | Unique (CD82 (mouse) (mouse)) | Substance
30 | 30 |  |  | Filamin A (from UniProt P21333)
 |  | 2 | 2 | G3P_MOUSE (from UniProt P16858) (enzyme)
77 | 64 |  |  | nonmuscle myosin IIA (from UniProt P35579)
5 | 5 |  |  | Annexin A2 (human) (from UniProt P07355)
32 | 31 |  |  | Myoferlin (from UniProt Q9NZM1)

Source: patent US20220119489A1, “COMPOSITIONS AND METHODS FOR TREATING MUSCULAR DYSTROPHY AND RELATED DISORDERS” (CHILDREN'S MEDICAL CENTER CORPORATION, priority 2019, published 2022)
